In this assay the target is SARS-CoV-2 receptor binding domain (RBD), residues 319-591 of SARS-CoV-2 S (SARS-CoV-2, UniProt P0DTC2 319-591). The experiment in a line: BLI, mAb on anti-human Fc probe (FIGS. 5A-E).

B1: Mab #1 (antibody, V domains shown)
VH: EVQLVESGPEVKKPGTSVKVPCKASGFTFTSSAVQWVRQARGQRLEWIGWIVVGSGNTNYAQKFQERVTITRDMSTSTAYMELSSLRSEDTAVYYCAAPSCSGGRCYDGFDIWGQGTMVTVSS
VL: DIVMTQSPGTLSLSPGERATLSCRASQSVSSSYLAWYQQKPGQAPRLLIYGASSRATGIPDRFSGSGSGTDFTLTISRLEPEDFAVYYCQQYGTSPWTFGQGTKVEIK
For B1, the binding result is “binds”.

The record behind these values is US20240400651A1 (VAL CHUM LIMITED PARTNERSHIP, published 2024).
